Laboratory results taken from patent US20200087416A1 (Innovent, published 2020).

Columns and labels:
[1] = molecular target: T1, human PCSK9 (PCSK9 antigen, SEQ ID NO. 53) (human, UniProt A8T644 31-152; Q8NBP7 153-692, Biotin-labelled on amines in the MSD-SET and sorting experiments; positions not given.); experiment: flow cytometry, PCSK9 left on CHO-LDLR cells (anti-His-FITC) after premix with 100 nM antibody
T1 construct: Biotin-labelled in MSD-SET; also called PCSK9-WT; PCSK9 protein

[2] = molecular target: T1, human PCSK9 (PCSK9 antigen, SEQ ID NO. …); experiment: flow cytometry, PCSK9 left on CHO-LDLR cells (anti-His-FITC) after premix with 0.1 nM antibody
[3] = molecular target: T1, human PCSK9 (PCSK9 antigen, SEQ ID NO. …); experiment: BLI (ForteBio), IgG on AHQ sensor, 100 nM antigen
murine PCSK-9 = molecular target: T2, murine PCSK-9 (murine, UniProt Q80W65 35-694); experiment: BLI (ForteBio), IgG on AHQ sensor, 100 nM antigen
T2 construct: also called mouse PCSK9

[4] = molecular target: T1, human PCSK9 (PCSK9 antigen, SEQ ID NO. …); experiment: flow cytometry, PCSK9 left on CHO-LDLR cells (anti-His-FITC) after premix with 1 nM antibody
[5] = molecular target: T1, human PCSK9 (PCSK9 antigen, SEQ ID NO. …); experiment: flow cytometry, PCSK9 left on CHO-LDLR cells (anti-His-FITC) after premix with 10 nM antibody
[6] = molecular target: T1, human PCSK9 (PCSK9 antigen, SEQ ID NO. …); experiment: cell-based or functional assay
[7] = molecular target: T1, human PCSK9 (PCSK9 antigen, SEQ ID NO. …); experiment: flow cytometry, PCSK9 left on CHO-LDLR cells (anti-His-FITC) after premix with 1000 nM antibody
[8] = molecular target: T1, human PCSK9 (PCSK9 antigen, SEQ ID NO. …); experiment: cell-based or functional assay; remark: listed apart in the source
Wherever BODIPY-LDL uptake by HepG2 cells, fluorescence, 16.8 nM, replicate 1 is given: unit not given here.
Wherever BODIPY-LDL uptake by HepG2 cells, fluorescence, 16.8 nM, replicate 2 is given: unit not given here.
Wherever BODIPY-LDL uptake by HepG2 cells, fluorescence, 4.2 nM, replicate 1 is given: unit not given here.
Wherever BODIPY-LDL uptake by HepG2 cells, fluorescence, 4.2 nM, replicate 2 is given: unit not given here.
Wherever BODIPY-LDL uptake by HepG2 cells, fluorescence, 66.7 nM, replicate 1 is given: unit not given here.
Wherever BODIPY-LDL uptake by HepG2 cells, fluorescence, 66.7 nM, replicate 2 is given: unit not given here.

Fluorescence Signal Value [1] | Fluorescence Signal Value [2] | Kd [3] [nM] | Kd (murine PCSK-9) [nM] | Fluorescence Signal Value [4] | Fluorescence Signal Value [5] | BODIPY-LDL uptake by HepG2 cells, fluorescence, 4.2 nM, replicate 1 [6] | BODIPY-LDL uptake by HepG2 cells, fluorescence, 4.2 nM, replicate 2 [6] | BODIPY-LDL uptake by HepG2 cells, fluorescence, 16.8 nM, replicate 1 [6] | BODIPY-LDL uptake by HepG2 cells, fluorescence, 16.8 nM, replicate 2 [6] | BODIPY-LDL uptake by HepG2 cells, fluorescence, 66.7 nM, replicate 1 [6] | BODIPY-LDL uptake by HepG2 cells, fluorescence, 66.7 nM, replicate 2 [6] | Fluorescence Signal Value [7] | fluorescence of BODIPY-LDL in HepG2 cells against no anti-PCSK9 antibody [8] [times] | Binder
5090 | 10400 | 0.295 | 0.544 | 8910 | 5680 | 0.423 | 0.435 | 0.78 | 0.742 | 0.749 | 0.797 | 5700 | ~2 | ADI-10085 (antibody, human IgG2, kappa, V domains shown, IgG) VH: QLQLQESGPGLVKPSETLSLTCTVSGGSIVSSSYYWAWIRQPPGKGLEWIGSINYKGSTYYNPSLKSRVTISVDTSKNQFSLKLSSVTAADTAVYYCARENSGVVPAAGPNWFGPWGQGTLVTVSS VL: EIVLTQSPATLSLSPGERATLSCRASQSVSSYLAWYQQKPGQAPRLLIYDASNRATGIPARFSGSGSGTDFTLTISSLEPEDFAVYYCQQRRNWFTFGGGTKVEIKR
5160 | 6800 | 0.471 | 0.855 | 6830 | 5830 | 0.357 | 0.401 | 0.574 | 0.561 | 0.706 | 0.752 | 5220 | ~2 | ADI-10088 (antibody, human IgG2, kappa, V domains shown, IgG) VH: QLQLQESGPGLVKPSETLSLTCTVSGGSIGSSSYYWAWIRQPPGKGLEWIGSINYRGSTYYNPSLKSRVTISVDTSKNQFSLKLSSVTAADTAVYYCARENSGVVPAAGPNWFDPWGQGTLVTVSS VL: EIVLTQSPATLSLSPGERATLSCRASQSVSSYLAWYQQKPGQAPRLLIYDASNRATGIPARFSGSGSGTDFTLTISSLEPEDFAVYYCQQRRNWFTFGGGTKVEIKR
5260 | 6860 | 0.296 | 0.558 | 6480 | 5740 | 0.37 | 0.403 | 0.72 | 0.683 | 0.758 | 0.775 | 5090 | ~2 | ADI-10087 (antibody, human IgG2, kappa, V domains shown, also called anti-PCSK antibody of the invention) VH: QLQLQESGPGLVKPSETLSLTCTVSGGSISSASYYWSWIRQPPGKGLEWIGSINYRGSTYYNPSLKSRVTISVDTSKNQFSLKLSSVTAADTAVYYCARENSGVVPAAGPNWFGPWGQGTLVTVSS VL: EIVLTQSPATLSLSPGERATLSCRASQSVSSYLAWYQQKPGQAPRLLIYDASNRATGIPARFSGSGSGTDFTLTISSLEPEDFAVYYCQQRRNWFTFGGGTKVEIKR
5140 | 6890 | 0.311 | 0.589 | 6500 | 5640 | 0.38 | 0.399 | 0.712 | 0.706 | 0.774 | 0.741 | 5330 | ~2 | ADI-10089 (antibody, human IgG2, kappa, V domains shown, IgG) VH: QLQLQESGPGLVKPSETLSLTCTVSGGSIGSSSYYWTWIRQPPGKGLEWIGSINYRGSTYYNPSLKSRVTISVDTSKNQFSLKLSSVTAADTAVYYCARENSGVVPAAGPNWFDPWGQGTLVTVSS VL: EIVLTQSPATLSLSPGERATLSCRASQSVSSYLAWYQQKPGQAPRLLIYDASNRATGIPARFSGSGSGTDFTLTISSLEPEDFAVYYCQQRRNWFTFGGGTKVEIKR
